Laboratory results from the RNAGym collection of RNA variant scans (doi:10.1093/molbev/msab373).

B1: Azoarcus group I ribozyme (parent)
chain: GUGCCUUGCGCCGGGAAACCACGCAAGGGAUGGUGUCAAAUUCGGCGAAACCUAAGCGCCCGCCCGGGCGUAUGGCAACGCCGAGCCAAGCUUCGGCGCCUGCGCCGAUGAAGGUGUAGAGACUAGACGGCACCCACCUAAGGCAAACGCUAUGGUGAAGGCAUAGUCCAGGGAGUGGCGAAAGUCACACAAACCGG

Variants of: B1
Test: reverse-splicing fitness (ratio to wild type); higher = more active; in vitro selection; Mg2+ level not given
Procedure, shortened: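 An in vitro group I ribozyme library with randomized positions was T7-transcribed and gel-purified. In triplicate, 10 pmol RNA in EPPS pH 7.5 was reacted with 50 pmoles of a 30-nt RNA substrate for 1 h at 37 °C across several added MgCl2 levels (1–48 mM), then stopped with EDTA. Products were reverse transcribed from a substrate-complementary primer, PCR-amplified and sequenced (HiSeq 4000). Fitness is a variant's read proportion after selection over that before, normalised to wild type.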

Variant | reverse-splicing fitness
GUGCCUUGCGCCGGGAAACCACGCAAGGGAUGGUGUCAAAUUCGGCGAAACCUAAGCGCCCGCCCGGGCGUAUGGCAACGCCGAGCCAAGCUUCGGCGCCUGCGCCGAUGAAGGUGUAGCGACUAGACGGCACCCACCUAAGGCUAACGUUAUGGUGAAGGCAUAGUCGAGGGAGGGGCGAAAGUCACACAAACCGG [A120C A145U C150U C169G U176G] | 0.00463
GUGCCUUGCGCCGGGAAACCACGCAAGGGAUGGUGUCAAAUUCGGCGAAACCUAAGCGCCCGCCCGGGCGUAUGGCAACGCCGAGCCAAGCUUCGGCGCCUGCGCCGAUGAAGGUGUAGCGACUAGACGGCACCCACCUAAGGCUAACGUUAUGGUGAAGGCAUAGUCGAGGGAGCGGCGAAAGUCACACAAACCGG [A120C A145U C150U C169G U176C] | 0.0117
GUGCCUUGCGCCGGGAAACCACGCAAGGGAUGGUGUCAAAUUCGGCGAAACCUAAGCGCCCGCCCGGGCGUAUGGCAACGCCGAGCCAAGCUUCGGCGCCUGCGCCGAUGAAGGUGUAGCGACUAGACGGCACCCACCUAAGGCUAACGUUAUGGUGAAGGCAUAGUCGAGGGAGAGGCGAAAGUCACACAAACCGG [A120C A145U C150U C169G U176A] | 0.0111
GUGCCUUGCGCCGGGAAACCACGCAAGGGAUGGUGUCAAAUUCGGCGAAACCUAAGCGCCCGCCCGGGCGUAUGGCAACGCCGAGCCAAGCUUCGGCGCCUGCGCCGAUGAAGGUGUAGCGACUAGACGGCACCCACCUAAGGCUAACGCUAUGGUGAAGGCAUAGUCGAGGGAGUGGCGAAAGUCACACAAACCGG [A120C A145U C169G] | 0.0257
GUGCCUUGCGCCGGGAAACCACGCAAGGGAUGGUGUCAAAUUCGGCGAAACCUAAGCGCCCGCCCGGGCGUAUGGCAACGCCGAGCCAAGCUUCGGCGCCUGCGCCGAUGAAGGUGUAGCGACUAGACGGCACCCACCUAAGGCUAACGCUAUGGUGAAGGCAUAGUCAAGGGAGUGGCGAAAGUCACACAAACCGG [A120C A145U C169A] | 0.032
GUGCCUUGCGCCGGGAAACCACGCAAGGGAUGGUGUCAAAUUCGGCGAAACCUAAGCGCCCGCCCGGGCGUAUGGCAACGCCGAGCCAAGCUUCGGCGCCUGCGCCGAUGAAGGUGUAGCGACUAGACGGCACCCACCUAAGGCUAACGUUAUGGUGAAGGCAUAGUCUAGGGAGUGGCGAAAGUCACACAAACCGG [A120C A145U C150U C169U] | 0.329
GUGCCUUGCGCCGGGAAACCACGCAAGGGAUGGUGUCAAAUUCGGCGAAACCUAAGCGCCCGCCCGGGCGUAUGGCAACGCCGAGCCAAGCUUCGGCGCCUGCGCCGAUGAAGGUGUAGCGACUAGACGGCACCCACCUAAGGCUAACGUUAUGGUGAAGGCAUAGUCAAGGGAGUGGCGAAAGUCACACAAACCGG [A120C A145U C150U C169A] | 0.0252
GUGCCUUGCGCCGGGAAACCACGCAAGGGAUGGUGUCAAAUUCGGCGAAACCUAAGCGCCCGCCCGGGCGUAUGGCAACGCCGAGCCAAGCUUCGGCGCCUGCGCCGAUGAAGGUGUAGCGACUAGACGGCACCCACCUAAGGCUAACGUUAUGGUGAAGGCAUAGUCGAGGGAGUGGCGAAAGUCACACAAACCGG [A120C A145U C150U C169G] | 0.0196
GUGCCUUGCGCCGGGAAACCACGCAAGGGAUGGUGUCAAAUUCGGCGAAACCUAAGCGCCCGCCCGGGCGUAUGGCAACGCCGAGCCAAGCUUCGGCGCCUGCGCCGAUGAAGGUGUAGCGACUAGACGGCACCCACCUAAGGCUAACGUUAUGGUGAAGGCAUAGUCAAGGGAGAGGCGAAAGUCACACAAACCGG [A120C A145U C150U C169A U176A] | 0.0137
GUGCCUUGCGCCGGGAAACCACGCAAGGGAUGGUGUCAAAUUCGGCGAAACCUAAGCGCCCGCCCGGGCGUAUGGCAACGCCGAGCCAAGCUUCGGCGCCUGCGCCGAUGAAGGUGUAGCGACUAGACGGCACCCACCUAAGGCUAACGUUAUGGUGAAGGCAUAGUCAAGGGAGCGGCGAAAGUCACACAAACCGG [A120C A145U C150U C169A U176C] | 0.0111
GUGCCUUGCGCCGGGAAACCACGCAAGGGAUGGUGUCAAAUUCGGCGAAACCUAAGCGCCCGCCCGGGCGUAUGGCAACGCCGAGCCAAGCUUCGGCGCCUGCGCCGAUGAAGGUGUAGCGACUAGACGGCACCCACCUAAGGCUAACGUUAUGGUGAAGGCAUAGUCAAGGGAGGGGCGAAAGUCACACAAACCGG [A120C A145U C150U C169A U176G] | 0.00474
GUGCCUUGCGCCGGGAAACCACGCAAGGGAUGGUGUCAAAUUCGGCGAAACCUAAGCGCCCGCCCGGGCGUAUGGCAACGCCGAGCCAAGCUUCGGCGCCUGCGCCGAUGAAGGUGUAGCGACUAGACGGCACCCACCUAAGGCUAACGUUAUGGUGAAGGCAUAGUCUAGGGAGGGGCGAAAGUCACACAAACCGG [A120C A145U C150U C169U U176G] | 0.0113
GUGCCUUGCGCCGGGAAACCACGCAAGGGAUGGUGUCAAAUUCGGCGAAACCUAAGCGCCCGCCCGGGCGUAUGGCAACGCCGAGCCAAGCUUCGGCGCCUGCGCCGAUGAAGGUGUAGCGACUAGACGGCACCCACCUAAGGCUAACGUUAUGGUGAAGGCAUAGUCUAGGGAGCGGCGAAAGUCACACAAACCGG [A120C A145U C150U C169U U176C] | 0.16
GUGCCUUGCGCCGGGAAACCACGCAAGGGAUGGUGUCAAAUUCGGCGAAACCUAAGCGCCCGCCCGGGCGUAUGGCAACGCCGAGCCAAGCUUCGGCGCCUGCGCCGAUGAAGGUGUAGCGACUAGACGGCACCCACCUAAGGCUAACGUUAUGGUGAAGGCAUAGUCUAGGGAGAGGCGAAAGUCACACAAACCGG [A120C A145U C150U C169U U176A] | 0.131
GUGCCUUGCGCCGGGAAACCACGCAAGGGAUGGUGUCAAAUUCGGCGAAACCUAAGCGCCCGCCCGGGCGUAUGGCAACGCCGAGCCAAGCUUCGGCGCCUGCGCCGAUGAAGGUGUAGCGACUAGACGGCACCCACCUAAGGCUAACGUUAUGGUGAAGGCAUAGUCCAGGGAGUGGCGAAAGUCACACAAACCGG [A120C A145U C150U] | 0.744
